Measured values: the nanobody polyreactivity screen of Harvey et al. (2022)

Experiment: yeast display, Sf9 membrane polyspecificity reagent, FACS + sequencing; frameworks hold sequencing errors
Summary of the method: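 Synthetic nanobody libraries on Saccharomyces cerevisiae BJ5465 were galactose-induced for 36–48 hours, stained 1 hour at 4 °C with 10% biotinylated, detergent-solubilized Sf9 membrane reagent and enriched on streptavidin microbeads. FACS then separated cells into low and high (top ~1%) gates by anti-HA (expression) and streptavidin (reagent binding) fluorescence. Genes were colony-PCR amplified, MiSeq 2 × 250 sequenced and CDR-length filtered. A clone's polyreactivity label is that of its gate of origin.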
For “QVQLVESGGGLVQAGGSLRLSCAASGFTFGSYAMGWYRQAPGKERELVAAISTSGDTTYYADSVKGRFTISRDNAKNTVYLQMNSLKPEDTAVYYCAAYDWGWPYTLIPFYYWGQGTQVTVSS”, the “polyreactivity (PSR sort gate)” value was “low polyreactivity”.
In the case of “QVQLVESGGGLVQAGGSLRLSCAASGFTFGSYAMGWYRQAPGKERELVAGITFSTGTTSYADSVKGRFTISRDNAKTTVYLQMNSLKPEDTAVYYCAADLIPNEDYWGQGTQVTVSS”, the “polyreactivity (PSR sort gate)” value is reported as “low polyreactivity”.
For “QVQLVESGGGLVQAGGSLRLSCAASGFTFGSYAMGWYRQAPGKERELVAVITRSGRTNYADSVKGRFTISRDTAKNTVYLQMNSLKPEDTAVYYCNADDVDDEVSPELTEMDYWGQGTQVTVSS”, the “polyreactivity (PSR sort gate)” value was “low polyreactivity”.
With “QVQLVESGGGLVQAGGSLRLSCAASGFTFGSYTMGWYRQAPGKERELVAAITGRGGSTYYADSVKARFTISRDNAKNTVYLQMNSLKPVDTAVYYCAGRRGTTYVGYDYWGQGTQVTVSS” the “polyreactivity (PSR sort gate)” value was “high polyreactivity”.
In the case of “QVQLVESGGGLVQAGGSLRLSCAASGFTFGTYAMGWYRQAPGKERELVAGITSGDGTYYADSVKGRFTISRDNAKNTVYLQMNSLKPEDTAVYYCAVVHYQQYSWRVYFYPYDYWGQGTQVTVSS”, the “polyreactivity (PSR sort gate)” value is reported as “high polyreactivity”.
For “QVQLVESGGGLVQAGGSLRLSCAASGFTFGVYAMGWYRQAPGKERELVAAISTTVGSTYYADSVKGRFTISRDNAKNTVYLQMNSLKPEDTAVYYCNADGYPDVGAGTYGYWGQGTQVTVSS”, the “polyreactivity (PSR sort gate)” value was “low polyreactivity”.
In the case of “QVQLVESGGGLVQAGGSLRLSCAASGFTFGWYTMGWYRPAPGKERELVAAISLNGGSTYYADSVKGRFTISRDNAKNTVYLQMNSLKPEDTAVYYCAIGYRWPYYPYDYWGQGTQVTVSS”, the “polyreactivity (PSR sort gate)” value is reported as “low polyreactivity”.
For “QVQLVESGGGLVQAGGSLRLSCAASGFTFGWYTMGWYRQAPGKEREFVAAISWSGTSTYYADSVKGRFTISRDNAKNTVYLQMNSLKAEDTAVYYCNKLRRGDMEYWGQGTQVTVSS”, the “polyreactivity (PSR sort gate)” value was “high polyreactivity”.
With “QVQLVESGGGLVQAGGSLRLSCAASGFTFGYNAMGWYRQAPGKERELVAAISWSGGTYYADSVKGRFTISRDNAKNTVYLQMNSLKPEDTAVYYCAAVVVYWTSQIYYDGYYYWGQGTQVTVSS” the “polyreactivity (PSR sort gate)” value was “high polyreactivity”.
With “QVQLVESGGGLVQAGGSLRLSCAASGFTFGYYTMGWYRQAPGKERELVAAISSGGSTNYADSVKGRFTISRDNAKNTVYLQMNSLKPEDTAVYYCTATQIGPYYLPFDSWGQGTQVTVSS” the “polyreactivity (PSR sort gate)” value was “high polyreactivity”.
In the case of “QVQLVESGGGLVQAGGSLRLSCAASGFTFGYYTMGWYRQAPGKERELVAAISWRGGRTYYADSVKGRFTISRDNAKNTVYLQMNSLKPEDTAVYYCAAEYTYGWTYRPFDYWGQGTQVTVSS”, the “polyreactivity (PSR sort gate)” value is reported as “high polyreactivity”.
For “QVQLVESGGGLVQAGGSLRLSCAASGFTFHKNAMGWYRQAPGKERELVAAITNRGGSTYYADSVKGRFTISRDNAKNTVYLQMNSLKPEDTAVYYCAAELRPYITYVGPRKKFYYWGQGTQVTVSS”, the “polyreactivity (PSR sort gate)” value was “high polyreactivity”.
For “QVQLVESGGGLVQAGGSLRLSCAASGFTFHNYAMGWYRQAPGKERELVAAITWDGGSTYYADSVKGRFTISRDNEKNTVDLQLNRLKPEDTAVYYCALDQYYYYYADYNFDYWGQGTQVTVSS”, the “polyreactivity (PSR sort gate)” value was “high polyreactivity”.
For “QVQLVESGGGLVQAGGSLRLSCAASGFTFHNYAMGWYRQAPGKERELVAVIRWRGGSTYYADSVKGRFTISRDNAKNSVYLQMNSLKPEDTAFYYCAKRARGSYYWGYNYWGQGTQVTVSS”, the “polyreactivity (PSR sort gate)” value was “high polyreactivity”.
For “QVQLVESGGGLVQAGGSLRLSCAASGFTFHNYAMGWYRQAPGKERELVAVIRWRGGSTYYADSVKGRFTISRDNAKNTVYLQMNSLKPEDTAVYYCNALFRYSRDYWGQGTQVTVSS”, the “polyreactivity (PSR sort gate)” value was “high polyreactivity”.
For “QVQLVESGGGLVQAGGSLRLSCAASGFTFHPNSMGWYRQAPGKERELVASISSRGGSTYYADSVKGRFTISRDNAKNTVYLQMNSQKPEYTAVYYCNVRGTQYYGHIGFYYWGQGTQVTVSS”, the “polyreactivity (PSR sort gate)” value was “low polyreactivity”.
For “QVQLVESGGGLVQAGGSLRLSCAASGFTFHRYAMGWYRQAPGKERELVARINWSGGGTYYADSVKGRFTISRDNAKNTVYLQMNSLKPEDTAVYYCNARGVFYVYKHDYWGQGTQVTVSS”, the “polyreactivity (PSR sort gate)” value was “high polyreactivity”.
For “QVQLVESGGGLVQAGGSLRLSCAASGFTFHSYAMGWYRQAPGKERELVAAISGRGGSTYYADSVKGRFTISRDNAKNTVYLQMNSLKPEDTAVYYCARYGYHDYGYWGQCTQVTVSS”, the “polyreactivity (PSR sort gate)” value was “high polyreactivity”.
With “QVQLVESGGGLVQAGGSLRLSCAASGFTFHTYAMGWYRQAPGKERELVAAIDSSGGITYYADSVKGRFTISRDNAKNTVYLQMKSLKPEDTAVYYCAAVFLLFGFEWSYDYWGQGTQVTVSS” the “polyreactivity (PSR sort gate)” value was “low polyreactivity”.
For “QVQLVESGGGLVQAGGSLRLSCAASGFTFHWYVMGWYRQAPGKERELVAAISRNGGRTYYADSVKGRFTISRDNAKNTVYLQMNSLKPEDTAVYYCATDYGWLYINSIWEYDYWGQGTQVTVSS”, the “polyreactivity (PSR sort gate)” value was “high polyreactivity”.
For “QVQLVESGGGLVQAGGSLRLSCAASGFTFHYYDMGWYRQAPGKERELVATISQSGTSTYYADSVKGRFTISRDNAKNSVYLQMHSLKPEDTAVYYCAADYIGYWYGYYWYEYWGQGTQVTVSS”, the “polyreactivity (PSR sort gate)” value was “low polyreactivity”.
For “QVQLVESGGGLVQAGGSLRLSCAASGFTFHYYGMGWYRQAPGKERELVAAINWSGSSTYYADSVKGRFTISRDNATNTVYLQMNSLKPEDSAVYYCAAEKRKLFQGVARYRYEYWGQGTQVTVSS”, the “polyreactivity (PSR sort gate)” value was “low polyreactivity”.
With “QVQLVESGGGLVQAGGSLRLSCAASGFTFIDYAMGWYRQAPGKERALVAAITSRGGSTYYADSVKGRFTISRDNAKNTVYLQMNSLKPEDTAVYYCNAGSSFWYAYEYWGQGTQVTVSS” the “polyreactivity (PSR sort gate)” value was “high polyreactivity”.
For “QVQLVESGGGLVQAGGSLRLSCAASGFTFIRNAMGWYRQAPGKERELVAAISKRGGSTNYADSVKGRFTISRDNAKNTVYLQMNSLKPEDTAVYYCAAGGQVAWLDYYPMDYWGQGTQVTVSS”, the “polyreactivity (PSR sort gate)” value was “low polyreactivity”.
With “QVQLVESGGGLVQAGGSLRLSCAASGFTFIRSAMGWYRQAPGKGRELVAAITVSGTRTYYADSVKGRFTISRDNAKNTVYLQMNSLKPEDTAVYYCNARDVYTGYGMGYWGQGTQVTVSS” the “polyreactivity (PSR sort gate)” value was “high polyreactivity”.
With “QVQLVESGGGLVQAGGSLRLSCAASGFTFIRYAMGWYRQAPGKERELVATITRRGGSTYYADSVTGRFTISRDNAKNTVYFQMNSLKPEDTAVYDCNRDYVTYGQYYYWGQGTQVTVSS” the “polyreactivity (PSR sort gate)” value was “high polyreactivity”.
In the case of “QVQLVESGGGLVQAGGSLRLSCAASGFTFIRYARGWYRPAPGKERELVAAIRGTGTSTYYADSVKGRFTISRDNAKNTVYLQMNSLKPEDTAVDYCNTVAGRSPYTRYDYWGQGTQVTVSS”, the “polyreactivity (PSR sort gate)” value is reported as “low polyreactivity”.
In the case of “QVQLVESGGGLVQAGGSLRLSCAASGFTFISYAMGWYRQAPGKERELVAVINQRGGRTYYADSVKGRFTISRDNAKNTVYLQMNSLKPEDTAVYYCATRLKSVSGGYNYWGQGTQVTVSS”, the “polyreactivity (PSR sort gate)” value is reported as “high polyreactivity”.
With “QVQLVESGGGLVQAGGSLRLSCAASGFTFITNAMGWYRQAPGKERELVASISIGGSTNYADSVKGRFTISRDNAKNTVYLQMNSLKPEDTAVYYCAARVYRRLFLPGRYGRPLGYWGQGTQVTVSS” the “polyreactivity (PSR sort gate)” value was “high polyreactivity”.
In the case of “QVQLVESGGGLVQAGGSLRLSCAASGFTFIYNAMGWYRQAPGKERELVAAISRGASTNYADSVKGRFTISRDNAKNTVYLQMNSLKPEDTAVYYCAKRTTRLAPYDYWGQGTQVTVSS”, the “polyreactivity (PSR sort gate)” value is reported as “high polyreactivity”.
In the case of “QVQLVESGGGLVQAGGSLRLSCAASGFTFIYYAMGWYRQAPGKERELVAAISSRTGRTYYADSVKGRFTISRDNAKNTVYLQMNSLKPEDTAVYYCNADRNWRSGKFNYWGQGTQVTVSS”, the “polyreactivity (PSR sort gate)” value is reported as “high polyreactivity”.
In the case of “QVQLVESGGGLVQAGGSLRLSCAASGFTFIYYAMGWYRQARGKERELVAAISRGDSTYYADSVKGRFTISRDNAKNTVYLQMISLKPEDTAVYYCAAASHVRRDHGYWGEGTQVTVSS”, the “polyreactivity (PSR sort gate)” value is reported as “low polyreactivity”.
With “QVQLVESGGGLVQAGGSLRLSCAASGFTFKFNAMGWYRQAPGKEREFVAAISYSGGSTYYADSVKGRFTISRDNAKNTVYLQMNSVKPEDTAVYYCAARAYWYGASYYYWGQGTQVTVSS” the “polyreactivity (PSR sort gate)” value was “high polyreactivity”.
With “QVQLVESGGGLVQAGGSLRLSCAASGFTFKFYAMGWYRPAPGKERELVAAISSGGASTYYADSVKGRFTISRDNAKNTVYLQMNSLKPEDTAVYYFAARSGGPSDGSGYWGQGTEVTVSS” the “polyreactivity (PSR sort gate)” value was “low polyreactivity”.
With “QVQLVESGGGLVQAGGSLRLSCAASGFTFKFYAMGWYRQAPGKERELVAAISWSGGSTYYADSVKGRFTISRDNAKNTVYLQMNSLKPEDTAVYYFAKRGGRQTYYYWGLGTQVTVSS” the “polyreactivity (PSR sort gate)” value was “high polyreactivity”.
With “QVQLVESGGGLVQAGGSLRLSCAASGFTFKGNAMGWYRQAPGKERELVATITQSAGSTYYADSVKGRFTISRDNAKNTVYLQMNSLKPEDTAVYYCNADPITLYYYSWYNYWGQGTQVTVSS” the “polyreactivity (PSR sort gate)” value was “low polyreactivity”.
In the case of “QVQLVESGGGLVQAGGSLRLSCAASGFTFKGNTMGWYRQAPGKERELVANITRGGTTYYADSVKGRFTISRDNAKNTVYLQMNSLKPEDTAVYYCAARNWPSRGYNYWGQGTQVTVSS”, the “polyreactivity (PSR sort gate)” value is reported as “high polyreactivity”.
With “QVQLVESGGGLVQAGGSLRLSCAASGFTFKLYAMGWYRQAPGKERELVAVITTSGGRTYYADSVKGRFTISRDNANNTVYLQMTSLKPEDTAVYYCAKVVFVRVAPGYYWGQGTQVTVSS” the “polyreactivity (PSR sort gate)” value was “high polyreactivity”.
With “QVQLVESGGGLVQAGGSLRLSCAASGFTFKSNAMGGYRQAPGKEREKVAAIDSRGDRTYYADSVKGRFTISRDNAKNTVYLQMNSLKPEDTAVYYCATKWRTYWSSGEYWGQGTQVTVSS” the “polyreactivity (PSR sort gate)” value was “high polyreactivity”.
In the case of “QVQLVESGGGLVQAGGSLRLSCAASGFTFKSYAMGWYRQAPGKERELVAAINRSGGSTYYADSVKGRFTISRDNAKNTVYLQMNSLKPEDTAVYYCAAVKPPDYYYWGQGTQVTVSS”, the “polyreactivity (PSR sort gate)” value is reported as “high polyreactivity”.
With “QVQLVESGGGLVQAGGSLRLSCAASGFTFKTNARGWYRQAPVTERELVAAITGSGSSTYYADSVKGRFTISRDNAKNTVYLQMNSLKPEDTAVYYCAASRVYKYYWGQGTEVTVSS” the “polyreactivity (PSR sort gate)” value was “high polyreactivity”.
With “QVQLVESGGGLVQAGGSLRLSCAASGFTFKTYAMGSYRPAPGKEREFVAAISSRGGSTYYSDSVKGRFTISRDNAKNTVYLQMHSLKPEDTAVYYCATATRPRDRYSRYGYWGQGTQVTVSS” the “polyreactivity (PSR sort gate)” value was “high polyreactivity”.
In the case of “QVQLVESGGGLVQAGGSLRLSCAASGFTFKTYAMGWYRQAPGKEREFVAAISSRGGSTYYADSVKGRFTISRDNAKNTVYLQMNSLKPEDTAVYYCATATRPRDRYSRYGYWGQGTQVTVSS”, the “polyreactivity (PSR sort gate)” value is reported as “high polyreactivity”.
